From PMC12080763

What was measured:
[1] = molecular target: truncated prolactin receptor of Nb2 cells (rat (endogenous in Nb2-11))
[2] = molecular target: truncated prolactin receptor of Nb2 cells (rat (endogenous in Nb2-11)); remark: listed apart in the source

Substance | EC50 of Nb2-11 cell proliferation (Alamar Blue, 3 days), Fig 3C [1] | EC50 of Nb2-11 cell proliferation (Alamar Blue, 3 days), Fig 3A [2]
Fc-(FL3)-mono-hGH (from UniProt P01241 27-217) (Fc fusion) | 0.81 nM | 
Mono-hGH-(FL3)-Fc (from UniProt P01241 27-217) (Fc fusion) |  | 1.64 nM
